Laboratory results reported in patent US11946041B2, “Modification of polypeptides” (BicycleRD Limited, priority 2017, dated 2024).
Entries after “also recorded” stand apart in the source; their conditions may differ. One block for each molecule: values may come before it.

Experiments:
MT1-MMP hemopexin domain = target: T1, MT1-MMP hemopexin domain (Homo sapiens, UniProt P50281); test: MMP-14 FP competition binding between peptide families
T1 construct: Human MMP-14 PEX protein at 71.1 μM monomer
Method: FIG. 6 illustrates an analysis of MT-MMP binding ligands. A: MMP-14 FP direct binding in cell-based selections; 1 nM tracer, 60 min data. 17-98-Sar6-k(FI)-and-17-99-Sar6-k(FI)-bind with Kds of 354 nM and 501 nM respectively. B: competition binding with several combinations of peptides, both fluorescein-labelled or native, from soluble and cell based selections.
FIG. 7 illustrates the competition profile between peptide ligands isolated in this example.
• Human MMP-14 PEX protein at 71.1 μM monomer (previously 77.1 μM) (T-017-011), stored in fridge (4/7/14) • Peptides as described in Results section
Method: • Prepare assay buffer: 20 mM HEPES, 150 mM NaCl, 1 mM CaCl2), 0.1% Tween20 (pH 7.6). Buffer was filtered before use to remove precipitate. • Method according to Example 3 with tracer at 1 nM and MMP-14 PEX at concentrations detailed in the graphs • 60 min data analysed • Results are shown in FIG. 6.

CCR4 [1] = target: T2, CCR4 (Homo sapiens, UniProt P51679); test: PathHunter eXpress CCR4 CHO-K1 β-Arrestin GPCR Assay, agonist format; format: cell-based
T2 construct: host or cells: CHO-K1
T2 sequence (P51679 1-360): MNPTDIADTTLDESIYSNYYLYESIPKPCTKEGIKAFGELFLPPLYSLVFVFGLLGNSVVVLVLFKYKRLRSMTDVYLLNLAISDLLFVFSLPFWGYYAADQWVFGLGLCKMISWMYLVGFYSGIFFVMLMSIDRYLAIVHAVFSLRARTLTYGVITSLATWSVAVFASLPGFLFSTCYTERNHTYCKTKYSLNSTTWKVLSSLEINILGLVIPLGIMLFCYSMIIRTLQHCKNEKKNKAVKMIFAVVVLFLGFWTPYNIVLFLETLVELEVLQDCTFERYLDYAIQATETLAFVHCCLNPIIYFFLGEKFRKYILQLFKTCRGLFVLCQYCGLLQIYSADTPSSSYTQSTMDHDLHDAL
Method: (§1) The aim of the present experiment was to analyze if if these peptides are functional using a Discoverx Assay, the Beta-Arrestin recruitment assay, to identify agonism or antagonism in the selected peptides.
(§2) Standard protocols used: • PathHunter® eXpress CCR4 CHO-K1 β-Arrestin GPCR Assay. 100 dp (1×96-well)
(§3) The experiment was carried using the manufacturer instructions.
The concentration was increased to test for response at high concentration.

CCR4 [2] = target: T2, CCR4; test: PathHunter eXpress CCR4 CHO-K1 β-Arrestin GPCR Assay, antagonist format with CCL22; format: cell-based
Method: as §1, §2, §3
We therefore used the assay in an antagonist format, using 10 nM CCL22.
We repeated this experiment lowering the concentration of CCL22 from 10 nM to 1 nM to show a full inhibition curve.

competition with other peptide families (MT1-MMP hemopexin domain): competes with all the other families
Molecule: CQNRFPNCPINGFFC [Peptide 17-99]

competition with other peptide families (MT1-MMP hemopexin domain): do not cross compete
Molecule: CYNEFGCEDFYDIC [Peptide 17-69-07]
binding site on MT1-MMP (MT1-MMP hemopexin domain): binds to a neutral binding site; also recorded: binding site is distinct from the 17-88/17-98 binding site

Raw Data (CCR4 [1]; 0.006 nM): 24609
Raw Data (CCR4 [1]; 0.02 nM): 24123
Raw Data (CCR4 [1]; 0.06 nM): 27885
Raw Data (CCR4 [1]; 0.17 nM): 25757
Raw Data (CCR4 [1]; 0.51 nM): 27976
Raw Data (CCR4 [1]; 1.5 nM): 27602
Raw Data (CCR4 [1]; 4.6 nM): 26096
Raw Data (CCR4 [1]; 13.9 nM): 22941
Raw Data (CCR4 [1]; 41.7 nM): 22581
Raw Data (CCR4 [1]; 125 nM): 22195
Raw Data (CCR4 [1]; 375 nM): 19528
Raw Data (CCR4 [1]; high concentration, 0.001 uM): 9494
Raw Data (CCR4 [1]; high concentration, 0.003 uM): 10549
Raw Data (CCR4 [1]; high concentration, 0.008 uM): 10183
Raw Data (CCR4 [1]; high concentration, 0.023 uM): 11338
Raw Data (CCR4 [1]; high concentration, 0.1 uM): 11394
Raw Data (CCR4 [1]; high concentration, 0.2 uM): 12202
Raw Data (CCR4 [1]; high concentration, 0.6 uM): 11009
Raw Data (CCR4 [1]; high concentration, 1.9 uM): 11006
Raw Data (CCR4 [1]; high concentration, 5.6 uM): 10444
Raw Data (CCR4 [1]; high concentration, 16.7 uM): 10968
Raw Data (CCR4 [1]; high concentration, 50 uM): 9993
Raw Data (CCR4 [2]; 1 nM CCL22, 0.001 uM): 139740
Raw Data (CCR4 [2]; 1 nM CCL22, 0.003 uM): 146107
Raw Data (CCR4 [2]; 1 nM CCL22, 0.008 uM): 158208
Raw Data (CCR4 [2]; 1 nM CCL22, 0.023 uM): 155622
Raw Data (CCR4 [2]; 1 nM CCL22, 0.1 uM): 132431
Raw Data (CCR4 [2]; 1 nM CCL22, 0.2 uM): 136037
Raw Data (CCR4 [2]; 1 nM CCL22, 0.6 uM): 141369
Raw Data (CCR4 [2]; 1 nM CCL22, 1.9 uM): 129872
Raw Data (CCR4 [2]; 1 nM CCL22, 5.6 uM): 110179
Raw Data (CCR4 [2]; 1 nM CCL22, 16.7 uM): 106271
Raw Data (CCR4 [2]; 1 nM CCL22, 50 uM): 85131
IC80 (CCR4 [2]; 10 nM CCL22): 9.29 µM
Raw Data (CCR4 [2]; 10 nM CCL22, 0.001 uM): 164482
Raw Data (CCR4 [2]; 10 nM CCL22, 0.003 uM): 157449
Raw Data (CCR4 [2]; 10 nM CCL22, 0.008 uM): 146640
Raw Data (CCR4 [2]; 10 nM CCL22, 0.023 uM): 154833
Raw Data (CCR4 [2]; 10 nM CCL22, 0.1 uM): 154951
Raw Data (CCR4 [2]; 10 nM CCL22, 0.2 uM): 151383
Raw Data (CCR4 [2]; 10 nM CCL22, 0.6 uM): 163219
Raw Data (CCR4 [2]; 10 nM CCL22, 1.9 uM): 153353
Raw Data (CCR4 [2]; 10 nM CCL22, 5.6 uM): 145586
Raw Data (CCR4 [2]; 10 nM CCL22, 16.7 uM): 127180
Raw Data (CCR4 [2]; 10 nM CCL22, 50 uM): 119853
Molecule: ACLNGCRNTNSQCA [24-11-00-N001, bicyclic peptide ligand, TATA scaffold, from CCR4 cell-based selection]

Molecule: CKMESWECLMLHPKC [Peptide 17-98]
binding site on MT1-MMP (MT1-MMP hemopexin domain): binds to the same site as the 17-88 family (the collagen binding site)

EC50 (CCR4 [1]): 0.00165 µM
Raw Data (CCR4 [1]; 0.006 nM): 37757
Raw Data (CCR4 [1]; 0.02 nM): 41715
Raw Data (CCR4 [1]; 0.06 nM): 57093
Raw Data (CCR4 [1]; 0.17 nM): 84488
Raw Data (CCR4 [1]; 0.51 nM): 111988
Raw Data (CCR4 [1]; 1.5 nM): 135687
Raw Data (CCR4 [1]; 4.6 nM): 172692
Raw Data (CCR4 [1]; 13.9 nM): 209362
Raw Data (CCR4 [1]; 41.7 nM): 230085
Raw Data (CCR4 [1]; 125 nM): 249665
Raw Data (CCR4 [1]; 375 nM): 234176
Raw Data (CCR4 [1]; high concentration, 0.001 uM): 16366
Raw Data (CCR4 [1]; high concentration, 0.003 uM): 23261
Raw Data (CCR4 [1]; high concentration, 0.008 uM): 29739
Raw Data (CCR4 [1]; high concentration, 0.023 uM): 47935
Raw Data (CCR4 [1]; high concentration, 0.1 uM): 67642
Raw Data (CCR4 [1]; high concentration, 0.2 uM): 88410
Raw Data (CCR4 [1]; high concentration, 0.6 uM): 101987
Raw Data (CCR4 [1]; high concentration, 1.9 uM): 118822
Raw Data (CCR4 [1]; high concentration, 5.6 uM): 118686
Raw Data (CCR4 [1]; high concentration, 16.7 uM): 130064
Raw Data (CCR4 [1]; high concentration, 50 uM): 122799
Raw Data (CCR4 [2]; 1 nM CCL22, 0.001 uM): 189754
Raw Data (CCR4 [2]; 1 nM CCL22, 0.003 uM): 206356
Raw Data (CCR4 [2]; 1 nM CCL22, 0.008 uM): 204398
Raw Data (CCR4 [2]; 1 nM CCL22, 0.023 uM): 218834
Raw Data (CCR4 [2]; 1 nM CCL22, 0.1 uM): 225758
Raw Data (CCR4 [2]; 1 nM CCL22, 0.2 uM): 245828
Raw Data (CCR4 [2]; 1 nM CCL22, 0.6 uM): 321207
Raw Data (CCR4 [2]; 1 nM CCL22, 1.9 uM): 425613
Raw Data (CCR4 [2]; 1 nM CCL22, 5.6 uM): 422771
Raw Data (CCR4 [2]; 1 nM CCL22, 16.7 uM): 433500
Raw Data (CCR4 [2]; 1 nM CCL22, 50 uM): 508067
Raw Data (CCR4 [2]; 10 nM CCL22, 0.001 uM): 178148
Raw Data (CCR4 [2]; 10 nM CCL22, 0.003 uM): 150444
Raw Data (CCR4 [2]; 10 nM CCL22, 0.008 uM): 136281
Raw Data (CCR4 [2]; 10 nM CCL22, 0.023 uM): 131693
Raw Data (CCR4 [2]; 10 nM CCL22, 0.1 uM): 151947
Raw Data (CCR4 [2]; 10 nM CCL22, 0.2 uM): 169306
Raw Data (CCR4 [2]; 10 nM CCL22, 0.6 uM): 173881
Raw Data (CCR4 [2]; 10 nM CCL22, 1.9 uM): 175875
Raw Data (CCR4 [2]; 10 nM CCL22, 5.6 uM): 212050
Raw Data (CCR4 [2]; 10 nM CCL22, 16.7 uM): 245795
Raw Data (CCR4 [2]; 10 nM CCL22, 50 uM): 223579
B1: CCL22: the natural ligand of CCR4; CCL22 Discoverx (Cat no #92-1006) (protein, UniProt O00626 25-93, looked up)
C-C motif chemokine 22: GPYGANMEDSVCCRDYVRYRLPLRVVKHFYWTSDSCPRPGVVLLTFRDKEICADPRVPWVKMILNKLSQ
